Reference: publication doi:10.1101/641969v1

B1: PaCntM (Pseudomonas aeruginosa PAO1) (protein)
chain: MNAADESLGNVLLVGLGAVAIQVALDLRRHGAGRLGALNHPGRRSQRIAEALARGACLQLEGQGQHRWLSGNAALDVFHQDPAELRDDWQTLVLCVPADSYLDVVRGLPWERLGGVRTLLLVSAFIGANLLVRSALPAGCQATVLSLSSYYAATKVIDETQPLRALTKAVKRRVYLGSSRPDCPARETWRRVLAGSGVEVVPLATPEAAEGRNVTTYVHSPFFLGEFALARILSEQGPPGFMYKLYPEGPITPGAIGAMRRLWCELSELLRRMGAEPLNLLRFLNDDNYPVHETMLPRASIDGFAEAGAERQEYLLFVRYAALLVDPFSPADEQGRHFDFSAVPFRRVSRDEDGLWRLPRVPLEDYRKLALIVALAAHFDLAMPQARSLLASYENAVSRFIDCQGASQCHPSLYPIDSRPAADAIYRQWCSTC
B2: SaCntM (Staphylococcus aureus subsp. aureus Mu50) (protein)
chain: MSKLLMIGTGPVAIQLANICYLKSDYEIDMVGRASTSEKSKRLYQAYKKEKQFEVKIQNEAHQHLEGKFEINRLYKDVKNVKGEYETVVMACTADAYYDTLQQLSLETLQSVKHVILISPTFGSQMIVEQFMSKFSQDIEVISFSTYLGDTRIVDKEAPNHVLTTGVKKKLYMGSTHSNSTMCQRISALAEQLKIQLEVVESPLHAETRNSSLYVHPPLFMNDFSLKAIFEGTDVPVYVYKLFPEGPITMTLIREMRLMWKEMMAILQAFRVPSVNLLQFMVKENYPVRPETLDEGDIEHFEILPDILQEYLLYVRYTAILIDPFSQPDENGHYFDFSAVPFKQVYKNEQDVVQIPRMPSEDYYRTAMIQHIGKMLGIKTPMIDQFLTRYEASCQAYKDMHQDQQLSSQFNTNLFEGDKALVTKFLEINRTLS

Tests used:
purified protein [1] = substrate: O=C(O)CCC(=O)C(=O)O; experiment: purified protein; settings: 0.2 mM NADH, 0.2 mM yNA, pH 8, 28 °C
purified protein [2] = substrate: CC(=O)C(=O)O; experiment: purified protein; type: biochemical, Staphylococcus aureus; settings: 0.2 mM NADPH, 0.2 mM xNA, pH 7, 28 °C

| Protein | Km (purified protein [1]) [µM] | kcat (purified protein [1]) [s⁻¹] | Km (purified protein [2]) [µM] | kcat (purified protein [2]) [s⁻¹] |
| --- | --- | --- | --- | --- |
| B1 | 133 ± 39 | 0.27 ± 0.02 | – | – |
| B2 | – | – | 51 ± 6 | 1.00 ± 0.02 |
